{
  "source": "paper PMC9970984",
  "target": "RNA polymerase II (RNAP II), endogenous",
  "assay": "Co-IP (IP: myc, Western blot for RNA Pol II, band intensity printed below lanes)",
  "conditions": "HCT116 cells transfected with myc-KAT8 WT or myc-KAT8 2KR plasmid; parent: 1.0",
  "data": [
    {"substance": "myc-KAT8 (lysine acetyltransferase 8), wild type (from UniProt Q9H7Z6) K168R; K175R", "values": [
      {"measurement": "ratio to parent", "result": 3.5}
    ]}
  ]
}
